Results: the Immune Epitope Database (IEDB)

Key:
Experiment in all cases: IEDB peptide-MHC binding, purified MHC/competitive/radioactivity; filed as Kd, often an IC50 or EC50 that approximates it; ≥ and ≤ were set here for values at or beyond the usual limits of such assays
HLA-A*11:01 = biological target: HLA-A*11:01
HLA-A*03:01 = biological target: HLA-A*03:01
HLA-A*31:01 = biological target: HLA-A*31:01
HLA-A*68:01 = biological target: HLA-A*68:01
HLA-A*33:01 = biological target: HLA-A*33:01
HLA-A*02:03 = biological target: HLA-A*02:03
HLA-A*02:06 = conditions: source organism: Dengue virus 1 Brazil/97-11/1997
[1] = source organism: Vaccinia virus WR
[2] = source organism: Mammarenavirus juninense
[3] = source organism: Triticum aestivum
[4] = source organism: Mammarenavirus brazilense

| Sequence | Kd (HLA-A*11:01; [1]) | Kd (HLA-A*03:01; [1]) | Kd (HLA-A*31:01; [1]) | Kd (HLA-A*68:01; [1]) | Kd (HLA-A*33:01; [1]) | also measured |
| --- | --- | --- | --- | --- | --- | --- |
| NVTSMEELAR | 227 nM | 5040 nM | 705 nM | 2.82 nM | 254 nM |  |
| PAAEFRRVAH |  |  |  |  |  | Kd (HLA-A*11:01; [2]): ≥ 69700 nM; Kd (HLA-A*03:01; [2]): ≥ 70000 nM; Kd (HLA-A*31:01; [2]): 9340 nM; Kd (HLA-A*68:01; [2]): ≥ 70100 nM; Kd (HLA-A*33:01; [2]): ≥ 24400 nM |
| PADCFLVKLK | 1510 nM | 2910 nM | ≥ 31200 nM | ≥ 22400 nM | 17100 nM |  |
| PIINTHSFY | ≥ 77900 nM | ≥ 78000 nM | ≥ 77900 nM | ≥ 77700 nM | ≥ 77700 nM |  |
| PLLCTLNKSH |  |  |  |  |  | Kd (HLA-A*11:01; [2]): ≥ 69700 nM; Kd (HLA-A*03:01; [2]): ≥ 70000 nM; Kd (HLA-A*31:01; [2]): ≥ 70000 nM; Kd (HLA-A*68:01; [2]): ≥ 70100 nM; Kd (HLA-A*33:01; [2]): ≥ 70000 nM |
| PLNEGVMAV |  |  |  |  |  | Kd (HLA-A*02:03; source organism: Dengue virus 3 Martinique/1243/1999): 21.5 nM |
| QITTDDLVK | 803 nM | ≥ 38900 nM | 207 nM | 436 nM | 3750 nM |  |
| QLLQELCCQH |  |  |  |  |  | Kd (HLA-A*11:01; [3]): ≥ 69800 nM; Kd (HLA-A*03:01; [3]): ≥ 27100 nM; Kd (HLA-A*31:01; [3]): ≥ 70000 nM; Kd (HLA-A*68:01; [3]): 17400 nM; Kd (HLA-A*33:01; [3]): ≥ 70000 nM |
| QMDSMEALEY | 755 nM | 1710 nM | ≥ 70000 nM | 11800 nM | ≥ 70000 nM |  |
| QTVDFTDCR | 348 nM | ≥ 35500 nM | 722 nM | 1.57 nM | 5810 nM |  |
| RLSILSKDK | 1210 nM | 613 nM | 10700 nM | 1080 nM | 12900 nM |  |
| RTMPNESRVK | 4.57 nM | 25.1 nM | 123 nM | 1120 nM | ≥ 70000 nM |  |
| SLGLILLKIV |  |  |  |  |  | Kd (HLA-A*02:03; source organism: Dengue virus 4 Dominica/814669/1981): 14.7 nM |
| SMGFKVTTRR | 1050 nM | 97.2 nM | 22.1 nM | 213 nM | 747 nM |  |
| SMLTNAISSR | 258 nM | 505 nM | 117 nM | 218 nM | 2330 nM |  |
| SMTIREFPR | 599 nM | 14800 nM | 0.164 nM | 200 nM | 1.94 nM |  |
| SNSKEIPSFR |  |  |  |  |  | Kd (HLA-A*11:01; [4]): 1880 nM; Kd (HLA-A*03:01; [4]): ≥ 33300 nM; Kd (HLA-A*31:01; [4]): 650 nM; Kd (HLA-A*68:01; [4]): 315 nM; Kd (HLA-A*33:01; [4]): 540 nM |
| SQVNPLTLTA |  |  |  |  |  | Kd (HLA-A*02:06): 167 nM |
